Literature values in patent publication US9394339B2, “Stabilized formulations of peptides and proteins protecting against non-enzymatic degradation” (Lyotropic Therapeutics, Inc., priority 2007, dated 2016).

B1: Carbonic anhydrase IV (1ZNC): human protein (protein, UniProt P22748 19-284, looked up)
Carbonic anhydrase 4: AESHWCYEVQAESSNYPCLVPVKWGGNCQKDRQSPINIVTTKAKVDKKLGRFFFSGYDKKQTWTVQNNGHSVMMLLENKASISGGGLPAPYQAKQLHLHWSDLPYKGSEHSLDGEHFAMEMHIVHEKEKGTSRNVKEAQDPEDEIAVLAFLVEAGTQVNEGFQPLVEALSNIPKPEMSTTMAESSLLDLLPKEEKLRHYFRYLGSLTTPTCDEKVVWTVFREPIQLHREQILAFSQKLYYDKEQTVSMKDNVRPLQQLGQRTVIKS
B2: Dihydropteridine reductase (1HDR): human protein (protein, UniProt P09417 2-244, looked up)
Dihydropteridine reductase: AAAAAAGEARRVLVYGGRGALGSRCVQAFRARNWWVASVDVVENEEASASIIVKMTDSFTEQADQVTAEVGKLLGEEKVDAILCVAGGWAGGNAKSKSLFKNCDLMWKQSIWTSTISSHLATKHLKEGGLLTLAGAKAALDGTPGMIGYGMAKGAVHQLCQSLAGKNSGMPPGAAAIAVLPVTLDTPMNRKSMPEADFSSWTPLEFLVETFHDWITGKNRPSSGSLIQVVTTEGRTELTPAYF
B3: Procathepsin L (1CS8): human protein (protein, UniProt P07711 18-333, looked up)
pro-form: TLTFDHSLEAQWTKWKAMHNRLYGMNEEGWRRAVWEKNMKMIELHNQEYREGKHSFTMAMNAFGDMTSEEFRQVMNGFQNRKPRKGKVFQEPLFYEAPRSVDWREKGYVTPVKNQGQCGSCWAFSATGALEGQMFRKTGRLISLSEQNLVDCSGPQGNEGCNGGLMDYAFQYVQDNGGLDSEESYPYEATEESCKYNPKYSVANDTGFVDIPKQEKALMKAVATVGPISVAIDAGHESFLFYKEGIYFEPDCSSEDMDHGVLVVGYGFESTESDNNKYWLVKNSWGEEWGMGGYVKMAKDRRNHCGIASAASYPTV
modifications: pro-form
B4: Ribonuclease A (1AFK): human protein (protein, UniProt P61823 27-150, looked up)
Ribonuclease pancreatic: KETAAAKFERQHMDSSTSAASSSNYCNQMMKSRNLTKDRCKPVNTFVHESLADVQAVCSQKNVACKNGQTNCYQSYSTMSITDCRETGSSKYPNCAYKTTQANKHIIVACEGNPYVPVHFDASV
B5: Procathepsin K (1BY8): human protein (protein, UniProt P43235 16-329, looked up)
pro-form: LYPEEILDTHWELWKKTHRKQYNNKVDEISRRLIWEKNLKYISIHNLEASLGVHTYELAMNHLGDMTSEEVVQKMTGLKVPLSHSRSNDTLYIPEWEGRAPDSVDYRKKGYVTPVKNQGQCGSCWAFSSVGALEGQLKKKTGKLLNLSPQNLVDCVSENDGCGGGYMTNAFQYVQKNRGIDSEDAYPYVGQEESCMYNPTGKAAKCRGYREIPEGNEKALKRAVARVGPVSVAIDASLTSFQFYSKGVYYDESCNSDNLNHAVLAVGYGIQKGNKHWIIKNSWGENWGNKGYILMARNKNNACGIANLASFPKM
modifications: pro-form
B6: Branched-chain -keto acid dehydrogenase (1DTW): human protein (protein, UniProt P12694 46-445; P21953 51-392, looked up)
2-oxoisovalerate … 1: SSLDDKPQFPGASAEFIDKLEFIQPNVISGIPIYRVMDRQGQIINPSEDPHLPKEKVLKLYKSMTLLNTMDRILYESQRQGRISFYMTNYGEEGTHVGSAAALDNTDLVFGQYREAGVLMYRDYPLELFMAQCYGNISDLGKGRQMPVHYGCKERHFVTISSPLATQIPQAVGAAYAAKRANANRVVICYFGEGAASEGDAHAGFNFAATLECPIIFFCRNNGYAISTPTSEQYRGDGIAARGPGYGIMSIRVDGNDVFAVYNATKEARRRAVAENQPFLIEAMTYRIGHHSTSDDSSAYRSVDEVNYWDKQDHPISRLRHYLLSQGWWDEEQEKAWRKQSRRKVMEAFEQAERKPKPNPNLLFSDVYQEMPAQLRKQQESLARHLQTYGEHYPLDHFDK
2-oxoisovalerate … 2: VAHFTFQPDPEPREYGQTQKMNLFQSVTSALDNSLAKDPTAVIFGEDVAFGGVFRCTVGLRDKYGKDRVFNTPLCEQGIVGFGIGIAVTGATAIAEIQFADYIFPAFDQIVNEAAKYRYRSGDLFNCGSLTIRSPWGCVGHGALYHSQSPEAFFAHCPGIKVVIPRSPFQAKGLLLSCIEDKNPCIFFEPKILYRAAAEEVPIEPYNIPLSQAEVIQEGSDVTLVAWGTQVHVIREVASMAKEKLGVSCEVIDLRTIIPWDVDTICKSVIKTGRLLISHEAPLTGGFASEISSTVQEECFLNLEAPISRVCGYDTPFPHIFEPFYIPDKWKCYDALRKMINY
B7: Purine nucleoside phosphorylase (1ULA): human protein (protein, UniProt P00491 1-289, looked up)
Purine nucleoside …: MENGYTYEDYKNTAEWLLSHTKHRPQVAIICGSGLGGLTDKLTQAQIFDYGEIPNFPRSTVPGHAGRLVFGFLNGRACVMMQGRFHMYEGYPLWKVTFPVRVFHLLGVDTLVVTNAAGGLNPKFEVGDIMLIRDHINLPGFSGQNPLRGPNDERFGDRFPAMSDAYDRTMRQRALSTWKQMGEQRELQEGTYVMVAGPSFETVAECRVLQKLGADAVGMSTVPEVIVARHCGLRVFGFSLITNKVIMDYESLEKANHEEVLAAGKQAAQKLEQFVSILMASIPLPDKAS
B8: Transaldolase (1F05): human protein (protein, UniProt P37837 1-337, looked up)
Transaldolase: MSSSPVKRQRMESALDQLKQFTTVVADTGDFHAIDEYKPQDATTNPSLILAAAQMPAYQELVEEAIAYGRKLGGSQEDQIKNAIDKLFVLFGAEILKKIPGRVSTEVDARLSFDKDAMVARARRLIELYKEAGISKDRILIKLSSTWEGIQAGKELEEQHGIHCNMTLLFSFAQAVACAEAGVTLISPFVGRILDWHVANTDKKSYEPLEDPGVKSVTKIYNYYKKFSYKTIVMGASFRNTGEIKALAGCDFLTISPKLLGELLQDNAKLVPVLSAKAAQASDLEKIHLDEKSFRWLHNEDQMAVEKLSDGIRKFAADAVKLERMLTERMFNAENGK
B9: Medium chain acyl-coa dehydrogenase (1EGE): human protein (protein, UniProt P11310 26-421, looked up)
Medium-chain specific …: KANRQREPGLGFSFEFTEQQKEFQATARKFAREEIIPVAAEYDKTGEYPVPLIRRAWELGLMNTHIPENCGGLGLGTFDACLISEELAYGCTGVQTAIEGNSLGQMPIIIAGNDQQKKKYLGRMTEEPLMCAYCVTEPGAGSDVAGIKTKAEKKGDEYIINGQKMWITNGGKANWYFLLARSDPDPKAPANKAFTGFIVEADTPGIQIGRKELNMGQRCSDTRGIVFEDVKVPKENVLIGDGAGFKVAMGAFDKTRPVVAAGAVGLAQRALDEATKYALERKTFGKLLVEHQAISFMLAEMAMKVELARMSYQRAAWEVDSGRRNTYYASIAKAFAGDIANQLATDAVQILGGNGFNTEYPVEKLMRDAKIYQIYEGTSQIQRLIVAREHIDKYKN
B10: Fructose-1,6-bisphosphatase (1FTA): human protein (protein, UniProt P09467 2-338, looked up)
Fructose-1,6-bisphosphatase 1: ADQAPFDTDVNTLTRFVMEEGRKARGTGELTQLLNSLCTAVKAISSAVRKAGIAHLYGIAGSTNVTGDQVKKLDVLSNDLVMNMLKSSFATCVLVSEEDKHAIIVEPEKRGKYVVCFDPLDGSSNIDCLVSVGTIFGIYRKKSTDEPSEKDALQPGRNLVAAGYALYGSATMLVLAMDCGVNCFMLDPAIGEFILVDKDVKIKKKGKIYSLNEGYARDFDPAVTEYIQRKKFPPDNSAPYGARYVGSMVADVHRTLVYGGIFLYPANKKSPNGKLRLLYECNPMAYVMEKAGGMATTGKEAVLDVIPTDIHQRAPVILGSPDDVLEFLKVYEKHSAQ

settings: aqueous solution, pH 7.4, 37° C., Tris-HCl buffer

Molecule	T1/10 (time to 10% degradation by deamidation) [days]
B1	11
B2	15
B3	7.3
B4	10
B5	4.3
B6	12
B7	0.27
B8	0.21
B9	5.5

same assay, conditions: buffer, pH 7.4

Molecule	T1/2 (half-life, deamidation) [days]
B10	59

same assay, conditions: pH 7.4

Molecule	T1/10 (time to 10% degradation by deamidation) [days]
B10	9.0
